Measurements published in PMC9168731.

Experiments:
[1] = molecular target: S. pombe Arp2/3 complex (S. pombe) (UniProt Q9UUJ1)
[2] = molecular target: S. pombe Arp2/3 complex (S. pombe) (UniProt Q9UUJ1); remark: listed apart in the source

Sequence of UniProt Q9UUJ1 (Q9UUJ1 whole entry, looked up, one chain of several): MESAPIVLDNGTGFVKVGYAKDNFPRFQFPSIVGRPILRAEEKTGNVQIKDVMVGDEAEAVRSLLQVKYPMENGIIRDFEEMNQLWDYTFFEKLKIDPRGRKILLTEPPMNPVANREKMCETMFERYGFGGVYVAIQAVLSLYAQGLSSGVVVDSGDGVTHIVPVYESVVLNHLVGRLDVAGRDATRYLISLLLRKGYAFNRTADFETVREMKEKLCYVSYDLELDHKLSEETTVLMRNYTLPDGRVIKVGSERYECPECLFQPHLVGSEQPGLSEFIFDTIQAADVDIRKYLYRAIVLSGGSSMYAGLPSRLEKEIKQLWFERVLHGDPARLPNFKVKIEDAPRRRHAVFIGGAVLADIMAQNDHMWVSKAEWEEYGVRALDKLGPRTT

maximum polymerization rate, pyrene actin polymerization assay (3 μM 15% pyrene-labeled actin, 50 nM SpArp2/3 complex, 5 μM Dip1); 2.8 nM/s for reactions without Dip1 [1] [nM/s]	activation of Arp2/3 complex, pyrene actin polymerization assay (3 μM 15% pyrene-labeled actin, 50 nM SpArp2/3 complex, 5 μM Dip1) (% reduction compared to WT Dip1) [2]	Substance
8		Dip1(N292K) (from UniProt O74771 1-374) (natural protein)
	> 60	Dip1(R301E) (from UniProt O74771 1-374) (natural protein)
20		Schizosaccharomyces pombe WDS protein Dip1, WT (from UniProt O74771 1-374) (natural protein)
